The supplement of paper PMC9233669
Fewer inactive variants are shown than the library holds.

What was measured:
biotinyl-Phe-oxazolone = test: self-aminoacylation, catalytic enhancement (BFO) (fold over background); higher = more active; k-Seq, kA / k0A0; sequences stand for … in GGGAAUGGAUCCACAUCUACGAAUUC…UUCACUGCAGACUUGACGAAGCUG
How it was run: (§1)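 Mutagenized RNA pools with a 21-nt variable region (0.43 μM) were reacted with each biotinyl-aminoacyl-oxazolone at 2–1250 μM for 90 minutes at room temperature, in 50 μL HEPES/NaCl/KCl/MgCl2/CaCl2 buffer containing 5% acetonitrile at pH 6.9–7.0. RNA captured on streptavidin was quantified by triplicate qPCR and by Illumina sequencing. The fraction reacted for each sequence was fit to a pseudo-first-order model with bootstrapping, and catalytic enhancement is the median kA divided by the uncatalyzed rate, taken as the low-activity peak of a bimodal Gaussian fit.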

biotinyl-Ile-oxazolone = test: self-aminoacylation, catalytic enhancement (BIO) (fold over background); higher = more active; k-Seq, kA / k0A0; sequences stand for … in GGGAAUGGAUCCACAUCUACGAAUUC…UUCACUGCAGACUUGACGAAGCUG
How it was run: as §1

biotinyl-Met-oxazolone = test: self-aminoacylation, catalytic enhancement (BMO) (fold over background); higher = more active; k-Seq, kA / k0A0; sequences stand for … in GGGAAUGGAUCCACAUCUACGAAUUC…UUCACUGCAGACUUGACGAAGCUG
How it was run: as §1

biotinyl-Val-oxazolone = test: self-aminoacylation, catalytic enhancement (BVO) (fold over background); higher = more active; k-Seq, kA / k0A0; sequences stand for … in GGGAAUGGAUCCACAUCUACGAAUUC…UUCACUGCAGACUUGACGAAGCUG
How it was run: as §1

biotinyl-Leu-oxazolone = test: self-aminoacylation, catalytic enhancement (BLO) (fold over background); higher = more active; k-Seq, kA / k0A0; sequences stand for … in GGGAAUGGAUCCACAUCUACGAAUUC…UUCACUGCAGACUUGACGAAGCUG
How it was run: as §1

biotinyl-Trp-oxazolone = test: self-aminoacylation, catalytic enhancement (BWO) (fold over background); higher = more active; k-Seq, kA / k0A0; sequences stand for … in GGGAAUGGAUCCACAUCUACGAAUUC…UUCACUGCAGACUUGACGAAGCUG
How it was run: as §1

Sequence	self-aminoacylation (biotinyl-Phe-oxazolone)	self-aminoacylation (biotinyl-Ile-oxazolone)	self-aminoacylation (biotinyl-Met-oxazolone)	self-aminoacylation (biotinyl-Val-oxazolone)	self-aminoacylation (biotinyl-Leu-oxazolone)	self-aminoacylation (biotinyl-Trp-oxazolone)
CUACUUCAAACAAUAGGUGUG [Fam1A.1 aminoacylation ribozyme variant]	1.38	1.07	1.22	0.975	1.25	0.781
CUACUUCAAACAAUCAGGCUG [Fam1A.1 aminoacylation ribozyme variant]	2.7	0.911	0.549	0.723	0.78	1.33
CUACUUCAAACAAUCAGUAUG [Fam1A.1 aminoacylation ribozyme variant]	6.02	0.847	0.891	0.819	0.777	2.46
CUACUUCAAACAAUCAGUCUC [Fam1A.1 aminoacylation ribozyme variant]	25.9	0.833	0.723	0.904	0.872	8
CUACUUCAAACAAUCAGUCUU [Fam1A.1 aminoacylation ribozyme variant]	13.2	0.938	0.854	0.942	0.935	4.96
CUACUUCAAACAAUCCGUCAG [Fam1A.1 aminoacylation ribozyme variant]	0.797	0.951	0.684	0.934	0.613	0.643
CUACUUCAAACAAUCCGUCCG [Fam1A.1 aminoacylation ribozyme variant]	0.694	0.825	0.708	0.903	0.927	0.751
CUACUUCAAACAAUCCGUCUC [Fam1A.1 aminoacylation ribozyme variant]	1.18	0.634	0.471	0.751	0.44	0.858
CUACUUCAAACAAUCCGUGUG [Fam1A.1 aminoacylation ribozyme variant]	7.45	1.99	2.86	1.88	3.84	2.52
CUACUUCAAACAAUCGCUCUA [Fam1A.1 aminoacylation ribozyme variant]	0.778	0.862	1.05	0.948	0.642	0.736
CUACUUCAAACAAUCGCUCUC [Fam1A.1 aminoacylation ribozyme variant]	2.18	0.621	0.384	1.02	0.515	1.2
CUACUUCAAACAAUCGCUCUU [Fam1A.1 aminoacylation ribozyme variant]	0.851	0.938	0.772	0.856	0.539	0.632
CUACUUCAAACAAUCGGCCUG [Fam1A.1 aminoacylation ribozyme variant]	85.3	1.69	1.87	1.78	2.86	48.1
CUACUUCAAACAAUCGGGAUG [Fam1A.1 aminoacylation ribozyme variant]	5.85	0.904	0.844	1.02	1.19	4.46
CUACUUCAAACAAUCGGGCCG [Fam1A.1 aminoacylation ribozyme variant]	1.76	1.53	1.19	0.974	1.32	1.22
CUACUUCAAACAAUCGGGCUC [Fam1A.1 aminoacylation ribozyme variant]	5.16	1.01	1.08	1.17	0.971	2.48
CUACUUCAAACAAUCGGGCUU [Fam1A.1 aminoacylation ribozyme variant]	1.14	1.55	1.12	1.32	0.955	1.3
CUACUUCAAACAAUCGGGGUG [Fam1A.1 aminoacylation ribozyme variant]	2.9	3.04	3.77	2.35	4.32	3.36
CUACUUCAAACAAUCGGUCAA [Fam1A.1 aminoacylation ribozyme variant]	6.72	0.846	0.695	0.996	0.712	2.24
CUACUUCAAACAAUCGGUCCA [Fam1A.1 aminoacylation ribozyme variant]	1.79	0.753	0.654	0.757	0.633	0.907
CUACUUCAAACAAUCGGUGAG [Fam1A.1 aminoacylation ribozyme variant]	1.5	0.901	1.19	1.03	1.05	0.907
CUACUUCAAACAAUCGUACUG [Fam1A.1 aminoacylation ribozyme variant]	1.35	0.519	0.419	0.533	0.389	0.573
CUACUUCAAACAAUCGUCCUG [Fam1A.1 aminoacylation ribozyme variant]	0.798	0.562	0.407	0.791	0.394	0.491
CUACUUCAAACAAUCGUUCAG [Fam1A.1 aminoacylation ribozyme variant]	0.81	0.658	0.566	0.769	0.497	0.523
CUACUUCAAACAAUCUGCCUG [Fam1A.1 aminoacylation ribozyme variant]	1.33	0.913	1.04	0.751	0.957	0.605
CUACUUCAAACAAUCUUUCUG [Fam1A.1 aminoacylation ribozyme variant]	5.42	0.747	0.771	0.898	0.658	2.33

Sequence	self-aminoacylation (biotinyl-Phe-oxazolone)	self-aminoacylation (biotinyl-Ile-oxazolone)	self-aminoacylation (biotinyl-Met-oxazolone)	self-aminoacylation (biotinyl-Val-oxazolone)	self-aminoacylation (biotinyl-Leu-oxazolone)	self-aminoacylation (biotinyl-Trp-oxazolone)
CUACUUCAAACAAUGGGGCUG [Fam1A.1 aminoacylation ribozyme variant]	0.625	1.12	0.841	1.1	0.707	0.497
CUACUUCAAACAAUUAGUCUG [Fam1A.1 aminoacylation ribozyme variant]	1.04	0.891	0.662	0.901	0.712	0.684
CUACUUCAAACAAUUGGCCUG [Fam1A.1 aminoacylation ribozyme variant]	2.28	1.57	1.11	1.33	1.34	2.03
CUACUUCAAACACUCGGACUG [Fam1A.1 aminoacylation ribozyme variant]	0.435	1.11	1.01	1.2	0.89	1.32
CUACUUCAAACACUCGGUCAG [Fam1A.1 aminoacylation ribozyme variant]	0.496	0.907	0.878	0.958	0.833	0.721
CUACUUCAAACACUCGGUGUG [Fam1A.1 aminoacylation ribozyme variant]	4.18	1.81	1.72	1.59	1.5	1.63
CUACUUCAAACACUCGUUCUG [Fam1A.1 aminoacylation ribozyme variant]	0.429	0.595	0.499	0.635	0.492	0.444
CUACUUCAAACACUCUGUCUG [Fam1A.1 aminoacylation ribozyme variant]	0.709	0.797	0.608	0.724	0.547	0.678
CUACUUCAAACAGUCGGUCUU [Fam1A.1 aminoacylation ribozyme variant]	0.838	1.1	0.925	0.819	1.13	0.563
CUACUUCAAACAUUCCGUCUG [Fam1A.1 aminoacylation ribozyme variant]	0.631	1.15	0.79	1.2	1.19	1.22
CUACUUCAAACAUUCGAUCUG [Fam1A.1 aminoacylation ribozyme variant]	0.62	0.645	0.593	0.731	0.561	0.44
CUACUUCAAACAUUCGGUCUG [Fam1A.1 aminoacylation ribozyme variant]	0.828	0.994	0.904	1.01	0.892	0.904
CUACUUCAAACAUUCGGUCUU [Fam1A.1 aminoacylation ribozyme variant]	0.774	1.15	1.38	1.11	1.03	0.767
CUACUUCAAACAUUCGUUCUG [Fam1A.1 aminoacylation ribozyme variant]	0.513	0.713	0.669	0.706	0.659	0.504
CUACUUCAAACCAUAGGUCUG [Fam1A.1 aminoacylation ribozyme variant]	0.985	0.807	0.47	0.809	0.615	0.487
CUACUUCAAACCAUCGCUCUG [Fam1A.1 aminoacylation ribozyme variant]	0.394	0.878	0.762	0.982	0.915	0.532
CUACUUCAAACCAUCGGGCUG [Fam1A.1 aminoacylation ribozyme variant]	0.939	1.97	2.16	1.92	1.73	1.77
CUACUUCAAACCAUCGGUUUG [Fam1A.1 aminoacylation ribozyme variant]	0.597	0.815	0.74	1.03	0.895	0.624
CUACUUCAAACGAUCGAUCUG [Fam1A.1 aminoacylation ribozyme variant]	0.425	0.55	0.47	0.584	0.485	0.354
CUACUUCAAACGAUCGGUCUG [Fam1A.1 aminoacylation ribozyme variant]	1.42	0.65	0.677	0.763	0.68	1.31
CUACUUCAAACUAUCGGCCUG [Fam1A.1 aminoacylation ribozyme variant]	0.97	1.2	1.13	1.06	0.909	1.66
CUACUUCAAACUAUCGGUCUG [Fam1A.1 aminoacylation ribozyme variant]	1.15	0.906	0.818	0.905	0.779	0.905
CUACUUCAAAGAAUCAGUCUG [Fam1A.1 aminoacylation ribozyme variant]	3.34	0.759	0.677	0.803	0.68	1.7
CUACUUCAAAGAAUCGGUCUA [Fam1A.1 aminoacylation ribozyme variant]	1.2	0.748	0.608	0.665	0.737	0.542
CUACUUCAAAGAAUCGGUUUG [Fam1A.1 aminoacylation ribozyme variant]	5.29	0.892	0.933	0.785	0.845	4.68
